Measured values taken from patent US20060073133A1 (published 2006).

Experiments:
[1] = target: human sialoadhesin factor-3 (SAF-3), on cells (human) (UniProt Q9Y286); assay: flow cytometry on monocyte-derived DCs cultured 7 days with mAb 12B1
SAF-2 = SAF-2 (UniProt Q9NYZ4 17-363, limits assumed); assay: displacement immunoassay
SAF-2, sequence (Q9NYZ4 17-363 limits assumed): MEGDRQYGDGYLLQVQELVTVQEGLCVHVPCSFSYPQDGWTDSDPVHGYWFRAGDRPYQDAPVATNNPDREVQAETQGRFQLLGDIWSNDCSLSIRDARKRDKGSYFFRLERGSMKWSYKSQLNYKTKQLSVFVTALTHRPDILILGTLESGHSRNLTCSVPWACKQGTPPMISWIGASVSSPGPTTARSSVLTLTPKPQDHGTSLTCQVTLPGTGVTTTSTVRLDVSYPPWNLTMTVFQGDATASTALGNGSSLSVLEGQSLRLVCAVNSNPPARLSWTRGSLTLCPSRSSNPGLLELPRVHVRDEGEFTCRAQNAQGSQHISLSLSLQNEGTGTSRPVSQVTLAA

human sialoadhesin factor-3 (SAF-3), on cells (human), sequence (Q9Y286 19-467 L192P/I393V limits assumed): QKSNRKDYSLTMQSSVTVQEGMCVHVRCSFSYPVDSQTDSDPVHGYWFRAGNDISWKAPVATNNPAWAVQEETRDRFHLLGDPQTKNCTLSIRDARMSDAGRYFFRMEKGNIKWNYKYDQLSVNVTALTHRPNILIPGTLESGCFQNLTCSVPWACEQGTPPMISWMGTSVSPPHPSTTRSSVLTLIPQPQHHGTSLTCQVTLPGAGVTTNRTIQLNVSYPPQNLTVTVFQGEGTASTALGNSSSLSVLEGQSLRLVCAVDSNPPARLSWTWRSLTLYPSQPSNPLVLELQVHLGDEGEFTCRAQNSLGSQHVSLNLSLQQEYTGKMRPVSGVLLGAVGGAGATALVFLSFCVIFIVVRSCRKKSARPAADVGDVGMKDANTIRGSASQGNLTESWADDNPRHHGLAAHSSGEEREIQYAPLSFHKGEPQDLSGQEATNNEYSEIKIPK

| Molecule | Mean Fluorescent Intensity [1] [MFI] | binding result (SAF-2) |
| --- | --- | --- |
| Isotype Control (antibody) | 3.5 | – |
| monoclonal antibody 12B1 (antibody, IgG2a, V domains shown, also called mAb 12B1; SAF-3 mAb (clone 12B1)) VH: QIQLQQSGPELVKPGASVKVSCKASGYSFTDYNIYWVKQSHGKSLEWIGYIDPYNDDTGYNQKFKGKATLTVDKSSSTAFMHLNSLTSEDSAVYYCASEGIHWGQGTLVTVS VL: DIVMTQSQKFMSTSVGDRVSVTCKASQNVGTNVAWFQQKPGQSPKALIYSASYRYNGVPDRFTGSGSGTDFTLTISNVQSEDLADYFCQQYNIYPYTFGGGTKLEIK | – | no binding (tested: max. displacement 5%) |
